Results reported in patent publication US20240124553A1.

Key:
Assay in all cases: flow cytometry, transfected 293T cells
[1] = molecular target: CHIKV E2-E1 envelope glycoproteins (strain S27), E2 mutant F84A (chikungunya virus strain S27) (UniProt Q8JUX5)
[2] = molecular target: CHIKV E2-E1 envelope glycoproteins (strain S27), E2 mutant E40A (chikungunya virus strain S27) (UniProt Q8JUX5)
[3] = molecular target: CHIKV E2-E1 envelope glycoproteins (strain S27), E2 mutant T92A (chikungunya virus strain S27) (UniProt Q8JUX5)
[4] = molecular target: CHIKV E2-6K-E1 envelope proteins (strain S27) with E2 N218A (Chikungunya virus strain S27) (UniProt Q8JUX5)
[5] = molecular target: CHIKV E2-6K-E1 envelope proteins (strain S27) with E2 S182A (Chikungunya virus strain S27) (UniProt Q8JUX5)
[6] = molecular target: CHIKV E2-6K-E1 envelope proteins (strain S27) with E2 R198A (Chikungunya virus strain S27) (UniProt Q8JUX5)
[7] = molecular target: CHIKV E2-6K-E1 envelope proteins (strain S27) with E2 L181A (Chikungunya virus strain S27) (UniProt Q8JUX5)
[8] = molecular target: CHIKV E2-6K-E1 envelope proteins (strain S27) with E2 S206A (Chikungunya virus strain S27) (UniProt Q8JUX5)
[9] = molecular target: CHIKV E2-6K-E1 envelope proteins (strain S27) with E2 C220A (Chikungunya virus strain S27) (UniProt Q8JUX5)
[10] = molecular target: CHIKV E2-6K-E1 envelope proteins (strain S27) with E2 S185A (Chikungunya virus strain S27) (UniProt Q8JUX5)
[11] = molecular target: CHIKV E2-6K-E1 envelope proteins (strain S27) with E2 N219A (Chikungunya virus strain S27) (UniProt Q8JUX5)
[12] = molecular target: CHIKV E2-6K-E1 envelope proteins (strain S27) with E2 V197A (Chikungunya virus strain S27) (UniProt Q8JUX5)
[13] = molecular target: CHIKV E2-6K-E1 envelope proteins (strain S27) with E2 T212A (Chikungunya virus strain S27) (UniProt Q8JUX5)
[14] = molecular target: CHIKV E2-6K-E1 envelope proteins (strain S27) with E2 K189A (Chikungunya virus strain S27) (UniProt Q8JUX5)
[15] = molecular target: CHIKV E2-6K-E1 envelope proteins (strain S27) with E2 Q183A (Chikungunya virus strain S27) (UniProt Q8JUX5)
[16] = molecular target: CHIKV E2-6K-E1 envelope proteins (strain S27) with E2 I211A (Chikungunya virus strain S27) (UniProt Q8JUX5)
[17] = molecular target: CHIKV E2-6K-E1 envelope proteins (strain S27) with E2 G209A (Chikungunya virus strain S27) (UniProt Q8JUX5)
[18] = molecular target: CHIKV E2-6K-E1 envelope proteins (strain S27) with E2 N187A (Chikungunya virus strain S27) (UniProt Q8JUX5)
[19] = molecular target: CHIKV E2-6K-E1 envelope proteins (strain S27) with E2 N193A (Chikungunya virus strain S27) (UniProt Q8JUX5)
[20] = molecular target: CHIKV E2-6K-E1 envelope proteins (strain S27) with E2 C203A (Chikungunya virus strain S27) (UniProt Q8JUX5)
[21] = molecular target: CHIKV E2-6K-E1 envelope proteins (strain S27) with E2 C201A (Chikungunya virus strain S27) (UniProt Q8JUX5)
[22] = molecular target: CHIKV E2-6K-E1 envelope proteins (strain S27) with E2 V216A (Chikungunya virus strain S27) (UniProt Q8JUX5)
[23] = molecular target: CHIKV E2-6K-E1 envelope proteins (strain S27) with E2 V192A (Chikungunya virus strain S27) (UniProt Q8JUX5)
[24] = molecular target: CHIKV E2-6K-E1 envelope proteins (strain S27) with E2 L210A (Chikungunya virus strain S27) (UniProt Q8JUX5)
[25] = molecular target: CHIKV E2-6K-E1 envelope proteins (strain S27) with E2 G204A (Chikungunya virus strain S27) (UniProt Q8JUX5)
[26] = molecular target: CHIKV E2-6K-E1 envelope proteins (strain S27) with E2 L180A (Chikungunya virus strain S27) (UniProt Q8JUX5)
[27] = molecular target: CHIKV E2-6K-E1 envelope proteins (strain S27) with E2 N202A (Chikungunya virus strain S27) (UniProt Q8JUX5)
[28] = molecular target: CHIKV E2-6K-E1 envelope proteins (strain S27) with E2 K215A (Chikungunya virus strain S27) (UniProt Q8JUX5)
[29] = molecular target: CHIKV E2-6K-E1 envelope proteins (strain S27) with E2 V188A (Chikungunya virus strain S27) (UniProt Q8JUX5)
[30] = molecular target: CHIKV E2-6K-E1 envelope proteins (strain S27) with E2 G186A (Chikungunya virus strain S27) (UniProt Q8JUX5)
[31] = molecular target: CHIKV E2-6K-E1 envelope proteins (strain S27) with E2 K200A (Chikungunya virus strain S27) (UniProt Q8JUX5)
[32] = molecular target: CHIKV E2-6K-E1 envelope proteins (strain S27) with E2 I190A (Chikungunya virus strain S27) (UniProt Q8JUX5)

Work on CHIKV mAb C9 (antibody) yielded a Binding Reactivity (% WT) [1] of 76.2 % WT, a Binding Reactivity (% WT) [2] of 107 % WT and a Binding Reactivity (% WT) [3] of 96 % WT.
CHIKV mAb CHKV-88 (antibody) showed a Binding Reactivity (% WT) [1] of 83.9 % WT, a Binding Reactivity (% WT) [2] of 108 % WT and a Binding Reactivity (% WT) [3] of 109 % WT.
CHIKV mAb IM-CKV063 (antibody) showed a Binding Reactivity (% WT) [1] of 61.7 % WT, a Binding Reactivity (% WT) [2] of 106 % WT and a Binding Reactivity (% WT) [3] of 84.5 % WT.
CHIKV mAb IM-CKV065 (antibody) gave a Binding Reactivity (% WT) [1] of 51.6 % WT, a Binding Reactivity (% WT) [2] of 124 % WT and a Binding Reactivity (% WT) [3] of 93.2 % WT.
With “Mxra8-Fc (mouse Mxra8 extracellular domain fused to mouse IgG2b Fc) (Fc fusion)” the Binding Reactivity (% WT) [4] was 56.5 % WT, the Binding Reactivity (% WT) [5] was 70.9 % WT and the Binding Reactivity (% WT) [6] was 74 % WT. For the same substance, the Binding Reactivity (% WT) [7] was 53.2 % WT, the Binding Reactivity (% WT) [8] was 52.2 % WT and the Binding Reactivity (% WT) [9] was 60.2 % WT. The Binding Reactivity (% WT) [10] was 88.1 % WT, the Binding Reactivity (% WT) [11] was 66.6 % WT and the Binding Reactivity (% WT) [1] was 77.6 % WT. For the same substance, the Binding Reactivity (% WT) [12] was 33.9 % WT, the Binding Reactivity (% WT) [2] was 86.2 % WT and the Binding Reactivity (% WT) [13] was 94.6 % WT. The Binding Reactivity (% WT) [14] was 156 % WT, the Binding Reactivity (% WT) [15] was 96.1 % WT and the Binding Reactivity (% WT) [16] was 81.1 % WT. The Binding Reactivity (% WT) [17] was 77.9 % WT, the Binding Reactivity (% WT) [18] was 90.5 % WT and the Binding Reactivity (% WT) [19] was 120 % WT. It also gave a Binding Reactivity (% WT) [20] of 10.4 % WT, a Binding Reactivity (% WT) [3] of 98.6 % WT and a Binding Reactivity (% WT) [21] of 9.6 % WT. For the same substance, the Binding Reactivity (% WT) [22] was 82.9 % WT, the Binding Reactivity (% WT) [23] was 56.9 % WT and the Binding Reactivity (% WT) [24] was 70.1 % WT. For the same substance, the Binding Reactivity (% WT) [25] was 76.7 % WT, the Binding Reactivity (% WT) [26] was 57 % WT and the Binding Reactivity (% WT) [27] was 80.6 % WT. For the same substance, the Binding Reactivity (% WT) [28] was 106 % WT, the Binding Reactivity (% WT) [29] was 55.2 % WT and the Binding Reactivity (% WT) [30] was 108 % WT. It also gave a Binding Reactivity (% WT) [31] of 75.5 % WT and a Binding Reactivity (% WT) [32] of 9.4 % WT.
